Source: patent publication US20190338018A1

Molecular target: DNABII protein tips
Test: cell-based or functional assay

B1: mAb mIhfB4NTHI Fab (murine, clone 12E6.F8.D12.D5) (Fab, V domains shown)
VH: EVQLQESGAELVRSGASVKLSCTASGFNIKDYYMHWVKQRPEQGLEWIGWIDPENDDTEYVPKFQGKASMTADTSSNTAYLQLSSLTSEDTAVYYCTELGAYWGQGTLV
VL: not shown
In the case of B1, the Reduction in Biomass (in vitro vs NTHI biofilms, 171 nM, COMSTAT2, relative to nonspecific murine IgG1) is reported as 77% and the reduction in biomass of NTHI 86-028NP biofilm in vitro, relative to mAb IgG1 Fab control is reported as 74%.

B2: mAb mIhfB4NTHI (murine monoclonal IgG, clone 12E6.F8.D12.D5) (antibody, V domains shown)
VH: B1 VH
VL: not shown
For B2, the Reduction in Biomass (in vitro vs NTHI biofilms, 171 nM, COMSTAT2, relative to nonspecific murine IgG1) was 71%.
